T1: 4H4073-bH
T1 chain: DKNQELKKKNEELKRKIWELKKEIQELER

T2: 4H855-bH
T2 chain: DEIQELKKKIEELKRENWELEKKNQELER

T3: 4H953-bH
T3 chain: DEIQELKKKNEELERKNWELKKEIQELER

T4: 4H780-bH
T4 chain: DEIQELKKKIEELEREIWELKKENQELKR

T5: 4H953-bA
T5 chain: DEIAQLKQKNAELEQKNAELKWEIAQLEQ

T6: 4H968-bH
T6 chain: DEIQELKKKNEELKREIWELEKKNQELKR

T7: 4H918-bH
T7 chain: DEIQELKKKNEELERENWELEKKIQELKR

T8: 4H3427-bH
T8 chain: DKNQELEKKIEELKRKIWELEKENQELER

T9: 4H683-bH
T9 chain: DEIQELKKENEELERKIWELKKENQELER

T10: 4H575-bH
T10 chain: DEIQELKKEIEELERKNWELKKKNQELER

T11: 4H457-bH
T11 chain: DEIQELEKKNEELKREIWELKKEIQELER

T12: 4H3926-bH
T12 chain: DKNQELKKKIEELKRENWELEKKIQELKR

T13: 4H797-bH
T13 chain: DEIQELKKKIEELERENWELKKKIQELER

T14: 4H754-bH
T14 chain: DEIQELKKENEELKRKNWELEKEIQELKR

T15: 4H346-bH
T15 chain: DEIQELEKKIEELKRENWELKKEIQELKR

T16: 4H3112-bH
T16 chain: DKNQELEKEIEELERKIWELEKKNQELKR

T17: zCON9_B
T17 chain: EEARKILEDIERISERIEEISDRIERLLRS

T18: zCON9_D
T18 chain: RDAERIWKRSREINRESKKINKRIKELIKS

T19: 4H850-bH
T19 chain: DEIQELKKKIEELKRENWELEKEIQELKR


What was measured:
4H4073-bH = molecular target: T1, 4H4073-bH; assay: two-hybrid library CCNG1;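 also: natural log of median RNA to DNA barcode read ratio; higher means stronger binding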
4H855-bH = molecular target: T2, 4H855-bH; assay: two-hybrid library CCNG1;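 also: natural log of median RNA to DNA barcode read ratio; higher means stronger binding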
4H953-bH = molecular target: T3, 4H953-bH; assay: two-hybrid library CCNG1;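 also: natural log of median RNA to DNA barcode read ratio; higher means stronger binding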
4H780-bH = molecular target: T4, 4H780-bH; assay: two-hybrid library CCNG1;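 also: natural log of median RNA to DNA barcode read ratio; higher means stronger binding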
4H953-bA = molecular target: T5, 4H953-bA; assay: two-hybrid library CCNG1;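 also: natural log of median RNA to DNA barcode read ratio; higher means stronger binding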
4H968-bH = molecular target: T6, 4H968-bH; assay: two-hybrid library CCNG1;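 also: natural log of median RNA to DNA barcode read ratio; higher means stronger binding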
4H918-bH = molecular target: T7, 4H918-bH; assay: two-hybrid library CCNG1
4H3427-bH = molecular target: T8, 4H3427-bH; assay: two-hybrid library CCNG1
4H683-bH = molecular target: T9, 4H683-bH; assay: two-hybrid library CCNG1
4H575-bH = molecular target: T10, 4H575-bH; assay: two-hybrid library CCNG1
4H457-bH = molecular target: T11, 4H457-bH; assay: two-hybrid library CCNG1
4H3926-bH = molecular target: T12, 4H3926-bH; assay: two-hybrid library CCNG1
4H797-bH = molecular target: T13, 4H797-bH; assay: two-hybrid library CCNG1
4H754-bH = molecular target: T14, 4H754-bH; assay: two-hybrid library CCNG1
4H346-bH = molecular target: T15, 4H346-bH; assay: two-hybrid library CCNG1
4H3112-bH = molecular target: T16, 4H3112-bH; assay: two-hybrid library CCNG1
zCON9_B = molecular target: T17, zCON9_B; assay: two-hybrid library CCmax
zCON9_D = molecular target: T18, zCON9_D; assay: two-hybrid library CCmax
4H850-bH = molecular target: T19, 4H850-bH; assay: two-hybrid library CCNG1

interaction score (4H4073-bH) | interaction score (4H855-bH) | interaction score (4H953-bH) | interaction score (4H780-bH) | interaction score (4H953-bA) | interaction score (4H968-bH) | interaction score (4H918-bH) | interaction score (4H3427-bH) | interaction score (4H683-bH) | interaction score (4H575-bH) | interaction score (4H457-bH) | interaction score (4H3926-bH) | interaction score (4H797-bH) | interaction score (4H754-bH) | interaction score (4H346-bH) | interaction score (4H3112-bH) | interaction score (zCON9_B) | interaction score (zCON9_D) | interaction score (4H850-bH) | Binder
0.581 | -0.95 | 0.505 | -0.427 | -0.817 | 0.0625 | -2.71 | 0.496 | 0.161 | -2.51 | 0.658 | 0.68 | -1.11 | -1.06 | -0.345 | -1.68 |  |  |  | DKIQELKKKNEELKREIWELEKEIQELKR [4H3010-bH]
 |  |  |  |  |  |  |  |  |  |  |  |  |  |  |  | -2.01 | -2.12 |  | PKKEAEELAEESEELHDRSEKLHERAEQ [zCON9_A]
-0.154 | 0.532 | 0.155 | 0.0507 |  | -0.466 | -3.17 |  | -1.17 | -0.18 | 0.311 | 1.28 | 0.329 | -0.0538 | 0.99 |  |  |  | -3.53 | DEIQELEKKIEELKRENWELKKEIQELKR [4H346-bH]

Reference: article PMC10397247
